Experimental data as given in patent US20020048584A1, “Method of treating residual HIV-I disease” (priority 2000, published 2002).

Key:
[1] = Safety and tolerability of IL-2 and OKT3 stimulation therapy with hydroxyurea and ddI intensification in patients on HAART; assay type: in vivo, human
Protocol: Treatments with OKT3 and IL-2 are initiated with a physician present during a four to five day admission to the Bone Marrow Transplant Unit. The first dose of IL-2 is given 24 hours after infusion of OKT3, and continued for a total of fourteen days. After 72 hours, if the patient has no or mild adverse side-effects, then the patient can be discharged and followed in the Infectious Disease Clinic as an out-patient, continuing IL-2 administration at home. […] Of note, further treatments with OKT3 may not be possible due to the potential production of human anti-murine antibodies ([…]., et al., Transplant Rev. 5: 181-199, 1991). […] The NIAID standardized toxicity grading system will be utilized (Table 3). Toxicity is graded on a 1 to 4 scale. When toxicity is encountered the dose administered to subjects is modified. […] Level 2 dose reduction will include discontinuation from the study. For hydroxyurea, Level 1 dose reduction will be to 800 mg qday (400 mg po BID).

CD4+ T-lymphocytes = conditions: cited from earlier work
T-lymphocytes = conditions: solid organ transplant subjects; cited from earlier work
[2] = OKT3 over 5 to 15 minutes on first day, followed by IL-2; cited from earlier work
[3] = in vivo; cited from earlier work

Compound: O=c1[nH]cnc2c1ncn2[C@H]1CC[C@@H](CO)O1 [ddI, didanosine, reference compound]
- serious adverse side-effects ([1]; patient #28, entire trial): did not have serious adverse side-effects

Compound: NC(=O)NO [hydroxyurea, reference compound]
- serious adverse side-effects ([1]; patient #28, entire trial): did not have serious adverse side-effects

Compound: IL-2: cytokine, 15,300 daltons, produced via recombinant DNA technology using genetically-engineered E. coli (Proleukin; Chiron)
- serious adverse side-effects ([1]; human, in vivo): did not have serious adverse side-effects
- increase in CD4+ T-lymphocytes (CD4+ T-lymphocytes; intravenous 18×10^6 IU per day, five-day treatments every two months, 6 cycles, baseline CD4+ greater than 200 cells/mm^3): approximately 400 cells per mm3
- CD4+ T-lymphocyte count, mean value after treatment (CD4+ T-lymphocytes; subcutaneous, 5 day courses every 8 weeks for 6 cycles, starting 7.5×10^6 IU bid, mean 355 at entry): 739

Compound: OKT3: purified murine monoclonal antibody (IgG2a) directed to the CD3 antigen of human T-lymphocytic cells
- serious adverse side-effects ([1]; human, in vivo): did not have serious adverse side-effects
- time to return of T-cell function to baseline levels after termination (T-lymphocytes): one
- maximum tolerated dose (MTD) [2]: 400 μg/m^2
- chest pain, patients [3]: 14%
- dyspnea, patients [3]: 21%
- headache, patients [3]: 11%
- hypertension, patients [3]: 8%
- nausea, patients [3]: 19%
- rigor, patients [3]: 8%
- tachycardia, patients [3]: 10%
- tremor, patients [3]: 13%
- vomiting, patients [3]: 19%
- wheezing, patients [3]: 13%
